# Laboratory results from patent US20230220589A1.
# B1: upgraded binder after additional maturation round (SEQ ID NO: 62) (designed binder, not shown: small tags and cut ends; large carriers)
# chain: TVPDRSEIAGKWYVVALASNTEFYLRGKDRVKSAMVRISFQGEDELKVSSAVPSPNGCYKVERTWKKTSDDGEVYNSRAAKLKVEVLDTDYKSYAVIYATRVKDRRTDHQMILYSRSPDVSPAATAIFRKLAGERNYTDEMVAMLPRQEECTVDEV
# What was measured:
# [1] = molecular target: M17-modified P NTAA target peptides; experiment: encoding assay; P2 L;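 further: fraction of recording tags encoded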
# [2] = molecular target: M17-modified Y NTAA target peptides (M17-Y-P2-peptide); experiment: encoding assay; P2 L;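 further: fraction of recording tags encoded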
# [3] = molecular target: M17-modified L NTAA target peptides; experiment: encoding assay; P2 L;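 further: fraction of recording tags encoded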
# [4] = molecular target: M17-modified M NTAA target peptides; experiment: encoding assay; P2 L;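 further: fraction of recording tags encoded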
# [5] = molecular target: M17-modified E NTAA target peptides; experiment: encoding assay; P2 L;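 further: fraction of recording tags encoded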
# [6] = molecular target: M17-modified D NTAA target peptides; experiment: encoding assay; P2 L;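 further: fraction of recording tags encoded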
# [7] = molecular target: M17-modified A NTAA target peptides; experiment: encoding assay; P2 L;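 further: fraction of recording tags encoded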
# [8] = molecular target: M17-modified F NTAA target peptides; experiment: encoding assay; P2 L;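 further: fraction of recording tags encoded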
# [9] = molecular target: M17-modified T NTAA target peptides; experiment: encoding assay; P2 L;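 further: fraction of recording tags encoded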
# [10] = molecular target: M17-modified N NTAA target peptides; experiment: encoding assay; P2 L;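 further: fraction of recording tags encoded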
# [11] = molecular target: M17-modified I NTAA target peptides; experiment: encoding assay; P2 L;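 further: fraction of recording tags encoded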
# [12] = molecular target: M17-modified H NTAA target peptides; experiment: encoding assay; P2 L;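 further: fraction of recording tags encoded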
# [13] = molecular target: M17-modified Q NTAA target peptides; experiment: encoding assay; P2 L;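 further: fraction of recording tags encoded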
# [14] = molecular target: M17-modified G NTAA target peptides; experiment: encoding assay; P2 L;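 further: fraction of recording tags encoded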
# [15] = molecular target: M17-modified W NTAA target peptides; experiment: encoding assay; P2 L;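 further: fraction of recording tags encoded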
# [16] = molecular target: M17-modified S NTAA target peptides; experiment: encoding assay; P2 L;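 further: fraction of recording tags encoded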
# [17] = molecular target: M17-modified V NTAA target peptides; experiment: encoding assay; P2 L;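 further: fraction of recording tags encoded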
# [18] = molecular target: M17-modified Y NTAA target peptides (M17-Y-P2-peptide); experiment: Gini coefficient of P2 tolerance from multiplex encoding heatmap
# [19] = molecular target: M17-modified P NTAA target peptides; experiment: encoding assay; P2 N;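 further: fraction of recording tags encoded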
# [20] = molecular target: M17-modified D NTAA target peptides; experiment: encoding assay; P2 N;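 further: fraction of recording tags encoded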
# [21] = molecular target: M17-modified A NTAA target peptides; experiment: encoding assay; P2 N;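 further: fraction of recording tags encoded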
# [22] = molecular target: M17-modified T NTAA target peptides; experiment: encoding assay; P2 N;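 further: fraction of recording tags encoded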
# [23] = molecular target: M17-modified N NTAA target peptides; experiment: encoding assay; P2 N;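 further: fraction of recording tags encoded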
# [24] = molecular target: M17-modified H NTAA target peptides; experiment: encoding assay; P2 N;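 further: fraction of recording tags encoded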
# [25] = molecular target: M17-modified W NTAA target peptides; experiment: encoding assay; P2 N;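 further: fraction of recording tags encoded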
# [26] = molecular target: M17-modified V NTAA target peptides; experiment: encoding assay; P2 N;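 further: fraction of recording tags encoded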
binder,measurement,setting,value
B1,encoding yield,[1],0.03
same,encoding yield,[2],0.29
same,encoding yield,[3],0.12
same,encoding yield,[4],0.03
same,encoding yield,[5],0.03
same,encoding yield,[6],0.02
same,encoding yield,[7],0.02
same,encoding yield,[8],0.08
same,encoding yield,[9],0.02
same,encoding yield,[10],0.03
same,encoding yield,[11],0.06
same,encoding yield,[12],0.04
same,encoding yield,[13],0.03
same,encoding yield,[14],0.02
same,encoding yield,[15],0.04
same,encoding yield,[16],0.03
same,encoding yield,[17],0.04
same,P2 score,[18],0.128
same,encoding yield,[19],0.02
same,encoding yield,[20],0.02
same,encoding yield,[21],0.02
same,encoding yield,[22],0.01
same,encoding yield,[23],0.04
same,encoding yield,[24],0.03
same,encoding yield,[25],0.02
same,encoding yield,[26],0.03
